Results from US8772236B2, “Truncated cystine-knot proteins” (Pepscan Systems B.V., priority 2009, dated 2014).
“And” between values parts separate entries of the source, which are not always exact repeats. Identical values can stand only once. Values belong to the molecule of their own block, whether it stands above or below them.

Key:
Avastin™ = assay: Competition ELISA: inhibition of Avastin-binding to surface-immobilized humVEGF1-165 by peptides
[1] = target: T1, ratVEGF1-165 homodimer (recombinant full-length ratVEGF) (Rattus norvegicus, UniProt P16612); assay: Binding of rat-antisera in ELISA to ratVEGF1-165 homodimer; conditions: coat ratVEGF1-165 homodimer; Avastin
T1 construct: humanVEGF), and D) ratVEGF1-165 homodimer (recombinant full-length ratVEGF); For
T1 sequence (P16612 27-165 isoform P16612-2 limits assumed): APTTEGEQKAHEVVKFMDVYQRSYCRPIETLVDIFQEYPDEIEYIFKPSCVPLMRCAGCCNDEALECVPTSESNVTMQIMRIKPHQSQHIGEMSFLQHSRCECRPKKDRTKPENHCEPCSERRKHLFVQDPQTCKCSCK
Description: Therefore, polystyrene 96-well plates (Greiner, Germany) were treated with 100 μL/well of 0.2% glutaric dialdehyde in phosphate-buffer (0.1 M, pH=5) for four hours at room temperature while shaking, following by washing (3×10 minutes) with phosphate-buffer (0.1 M, pH=8). Then, the wells were coated with 100 μL/well of a 1 μg/mL solution of oxid-humVEGF26-104/humVEGF1-165 in phosphate-buffer (0.1 M, pH=8) for three hours at 37° C., followed by overnight standing at room temperature. After washing with 1% TWEEN®-80 (3×), the plates were incubated with the antibody at various different dilutions in horse serum (4% in PBS/1% TWEEN®-80/3% NaCl), starting with 1/10 dilution in the first well and three-fold dilution steps in subsequent wells. Incubation was performed for one hour at 37° C., followed by washing with 1% TWEEN®-80 (3×). Then, the plates were incubated with 100 μL/well of peroxidase-labeled Goat-anti-rat serum (1/1000 dilution in 4% horse serum, see above) for one hour at 25° C., followed by washing with 1% TWEEN®-80 (4×). […] OD405 nm-values were measured after 45 minutes standing at room temperature in the dark.
(§3) Titers were calculated by determining the serum dilution for which OD405 nm is equal to 4×OD405 nm that of a buffer solution (see “ELISA-binding studies, example 1B”). […]

[2] = tested on: BaF3 cells (murine pre-B lymphocytes stable expressing human humVEGF-Receptor 2); assay: BaF3-cell proliferation in the presence of oxid-humVEGF26-104; assay type: cell-based
Description: FIG. 8. Proliferation data from BaF3/cell assay with humVEGF26-104 at various concentration (0.01-20 ng/mL), either in the absence and presence of humVEGF1-165. Level of proliferation observed at humVEGF1-165=1.2 ng/mL was set by default to 100%, other proliferation levels were expressed as % of default.
The cells that are used in the assay are murine pre-B lymphocytes stable expressing human (h) humVEGF-Receptor 2 (Makinen et al., 2001). These recombinant cells survive/proliferate only in the presence of IL-3 (natural cytokine required for the survival of the parental cells) or humVEGF. […]
Two days later, cell proliferation was measured by adding WST-1 (Roche #1644807). […]
The WST-1 assay is based on the measurement of the mitochondrial succinate dehydrogenase activity. […] A tetrazolium salt (WST-1) is used as substrate since it generates a soluble dark metabolic (formazon) through the action of the enzyme, which can then be quantified by measuring the absorbance (450 nm) in an ELISA reader. The higher the absorbance measured in the assay, the stronger the proliferation. Absorbance is positively correlated with proliferation. […]
In order to check whether oxid-humVEGF26-104, the truncated form of humVEGF1-165, is also able to induce BaF3-cell proliferation, we measured cell proliferation in the presence of varying amounts of oxid-humVEGF26-104 (0.01-20 ng/mL). […]

humVEGF1-165 = target: T2, humVEGF1-165 (Homo sapiens, UniProt P15692); assay: ELISA titer determination of antisera on surface-immobilized humVEGF1-165 after immunization with oxid-humVEGF26-104; assay type: binding; conditions: female Wistar rats and female Balb/C mice
T2 sequence (P15692 27-191 isoform P15692-4 limits assumed): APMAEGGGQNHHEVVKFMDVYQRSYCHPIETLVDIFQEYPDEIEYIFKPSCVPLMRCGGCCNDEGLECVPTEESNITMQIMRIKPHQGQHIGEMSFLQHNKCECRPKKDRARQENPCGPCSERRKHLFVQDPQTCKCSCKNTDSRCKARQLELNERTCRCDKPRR
Description: Therefore, polystyrene 96-well plates (Greiner, Germany) were treated with 100 μL/well of 0.2% glutaric dialdehyde in phosphate-buffer (0.1 M, pH=5) for four hours at room temperature while shaking, following by washing (3×10 minutes) with phosphate-buffer (0.1 M, pH=8). Then, the wells were coated with 100 μL/well of a 1 μg/mL solution of oxid-humVEGF26-104/humVEGF1-165 in phosphate-buffer (0.1 M, pH=8) for three hours at 37° C., followed by overnight standing at room temperature. After washing with 1% TWEEN®-80 (3×), the plates were incubated with the antibody at various different dilutions in horse serum (4% in PBS/1% TWEEN®-80/3% NaCl), starting with 1/10 dilution in the first well and three-fold dilution steps in subsequent wells. […] OD405 nm-values were measured after 45 minutes standing at room temperature in the dark. […]
Wistar rats: Female Wistar rats were immunized with anti-humVEGF26-104 at day 0 with 400 μL (intramuscular+subcutaneous, 200 μL each) of a 375 μg/mL solution of humVEGF26-104 in PBS/CoVaccine 1:1 (v/v) (PBS=Phosphate-Buffered Saline), followed by a booster (same quantity and concentration) at two and four weeks. […]
as §3

[3] = Immunization study in Wistar rats with oxid-ratVEGF26-104 and oxid-humVEGF26-104; assay type: in vivo; conditions: 250 micrograms, CoVaccine, days 0, 14, 28, 42; bled day 56
Excerpt: This example describes the results of an immunization study in male Whistar rats with both oxid-hum-VEGF26-104 and oxid-ratVEGF26-104 with an intact cystine-knot fold (oxid-form). […] The use of truncated VEGF as described in this patent can thus be used to bypass immune tolerance to “self proteins,” like, for example, the full-length homodimeric VEGF protein in this particular case.
A total of four Wistar rats (2×2) were immunized on day 0 with 250 micrograms each of either oxid-ratVEGF26-104 (two rats) or oxid-humVEGF26-104 (two rats) using CoVaccine as adjuvant, followed by booster inoculations at day 14, 28, and 42. The rats were finally bled at day 56, and the sera were analyzed for antibody titers against ratVEGF1-165, humVEGF1-165, oxid-ratVEGF26-104, and oxid-humVEGF26-104.

[4] = tested on: humTGFB2trunc-1, humTGFB2trunc-2, humVEGFtrunc; assay: ELISA binding of 9wpv-rat sera to humTGFB2trunc-1, humTGFB2trunc-2 and humVEGFtrunc; set-up: species or system human
Excerpt: (§1) FIG. 21. (Panel A) Antibody titers in ELISA for 9wpv-rat sera (1 and 2+pre-immune sera) that were elicited via immunization with oxid-humTGFB215-111/Δ49-77-humVEGF62-67. Titers were defined as the −10 log [conc] at which the OD in ELISA is equal to 4× the background signal. (Panel B) Antibody binding in ELISA of 9wpv-rat sera to surface-immobilized 1) humTGFB2trunc-1 (with VEGF b2-loop), 2) humTGFB2trunc-2 (with sequence PGGSPA replacing native humTGF-B2 b2-loop), and 3) humVEGFtrunc.
(§2) Each animal received four inoculations (0, 2, 4, and 7.5 wks) with 2×450+2×130 microgram of oxid-humTGFB215-111/Δ49-77-humVEGF62-67.

full-length TGF-B2 = target: T3, full-length TGF-B2 (Homo sapiens, UniProt P61812); assay: ELISA titers of rat antisera to full-length TGF-B2 after immunization with the chimeric peptide; assay type: binding
T3 sequence (P61812 303-414 limits assumed): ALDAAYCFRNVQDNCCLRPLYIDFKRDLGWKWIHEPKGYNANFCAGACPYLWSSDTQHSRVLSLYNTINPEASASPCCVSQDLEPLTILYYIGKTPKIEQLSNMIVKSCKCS
Excerpt: as §1, §2

fold less active in binding to Avastin™ (Avastin™): > 10,000 fold
Molecule: (cyclic) peptide-mimic derived from the beta3-loop of humVEGF: backbone-cyclized peptide covering only the β5-turn-β6 loop of humVEGF (humVEGF74-98) (SNITMQIMRIKPHQGQHIGEMSFLQ; cyclised or stapled) [reference compound]

Molecule: Avastin: humanized anti-humVEGF monoclonal antibody (Genentech)
titer endblood (mAb, as concentration) [1]: <1000 ng/mL

difference in affinity (as compared to humVEGF1-165) to Avastin™ (Avastin™; 10 ng/mL Avastin): less than five
B1: oxid-humVEGF26-104: truncated human VEGF residues 26-104, N-acetylated, C-amidated, cystine-knot folded (SEQ ID NO:27) (peptide)
chain: CHPIETLVDIFQEYPDEIEYIFKPSAVPLMRCGGACNDEGLECVPTEESNITMQIMRIKPHQGQHIGEMSFLQHNKCEC
modifications: N-acetyl, C-amide, cystine-knot folded; VEGF26-104
effect on the proliferating ability of humVEGF1-165 ([2]; 0.01-20 ng/mL in the presence of humVEGF1-165=1.2 ng/mL): nor any affect on the proliferating ability of humVEGF1-165
activity in BaF3-cell proliferation ([2]; 0.01-20 ng/mL, absence of humVEGF1-165): no activity
antibody generation via immunization (not conjugated to a carrier protein) (humVEGF1-165): high levels of antibodies were successfully generated

B2: oxid-ratVEGF26-104: truncated rat VEGF residues 26-104, acetylated and amidated, cystine-knot folded (SEQ ID NO:30) (peptide)
chain: CRPIETLVDIFQEYPDEIEYIFKPSAVPLMRCAGACNDEALECVPTSESNVTMQIMRIKPHQSQHIGEMSFLQHSRCEC
modifications: N-acetyl, C-amide, cystine-knot folded; ratVEGF26-104
immunogenicity in rats compared to oxid-humVEGF26-104 [3]: equally immunogenic and potent as compared to oxid-humVEGF26-104

titer in ELISA to full-length TGF-B2, pre-immune sera (full-length TGF-B2; pre-immune sera of the two rats): ≤ 2.1
titer in ELISA to full-length TGF-B2, nine weeks post vaccination antisera (full-length TGF-B2; two rats, inoculations at 0, 2, 4, 7.5 wks, titer = -10log[conc] at which OD = 4x background): 3.8 and 4.1
B3: oxid-humTGFB215-111/Δ49-77-humVEGF62-67: chimeric truncated human TGFB2 residues 15-111 with beta2-loop replaced by humVEGF 62-67 (SEQ ID NO:35) (peptide)
chain: CALRPLYIDFKRDLGWKWIHEPKGYNANFCAGACNDEGLECVSQDLEPLTILYYIGKTPKIEQLSNMIVKSCKC
modifications: oxidized; humTGFB2-humVEGF
specificity of antibodies in the sera (TGFB2-part versus VEGF-part) [4]: majority of antibodies in the sera were directed towards the TGFB2-part of the peptide
cross-reactivity of elicited antibodies with native humTGF-B2 (full-length TGF-B2; rat antisera): fully cross-reactive with the native protein humTGF-B2
